Experimental data taken from PMC11845725.

Columns and labels:
[1] = biological target: H. polygyrus TGF-β Mimic 6 (TGM6) (H. polygyrus); experiment: ITC; binder in the syringe, target in the sample cell, concentrations as in the tables; 25 °C; 25 mM HEPES, 150 mM NaCl, 0.05% NaN3, pH 7.4; fit to a simple 1:1 binding model
[2] = biological target: TGM6 domain 3 (TGM6-D3) (H. polygyrus); experiment: as above
[3] = biological target: TGM6-D3 I78A (H. polygyrus); experiment: as above
[4] = biological target: TGM6-D3 P94K R95N (KN) (H. polygyrus); experiment: as above
[5] = biological target: TGM6-D3 R38A (H. polygyrus); experiment: as above
[6] = biological target: TGM6-D3 R95A (H. polygyrus); experiment: as above
[7] = biological target: TGM6-D3 Y80A (H. polygyrus); experiment: as above
[8] = biological target: TGM6-D3 Y80F (H. polygyrus); experiment: as above
[9] = biological target: TGM6-D3 Y93A (H. polygyrus); experiment: as above
[10] = biological target: TGM1 domain 3 (TGM1-D3) (H. polygyrus); experiment: ITC; binder in the syringe, target in the sample cell, concentrations as in the tables; 35 °C; 25 mM HEPES, 150 mM NaCl, 0.05% NaN3, pH 7.4; fit to a simple 1:1 binding model
[11] = biological target: TGM1-D3 K241Q S242R G243R T244G (QRRG) (H. polygyrus); experiment: as above
[12] = biological target: TGM1-D3 K254P N255R (PR) (H. polygyrus); experiment: as above
[13] = biological target: TGM1-D3 S242R (H. polygyrus); experiment: as above
[14] = biological target: TGM6 domain 3 (TGM6-D3) (H. polygyrus); experiment: as above
[15] = biological target: TGM6-D3 Q81K R82S R83G G84T (KSGT) (H. polygyrus); experiment: as above
[16] = biological target: TGM6-D3 R82A (H. polygyrus); experiment: as above
[17] = biological target: TGM6-D3 R82S (H. polygyrus); experiment: as above
[18] = biological target: TGM6 domain 3 (TGM6-D3) (H. polygyrus); experiment: ITC; competition: 150 μM TGFBR2 in the syringe into 15 μM TGM6-D3 in the cell with 0.0 or 6.0 μM TGM1-D3; 25 °C; ITC buffer pH 7.4; global fit to a simple competitive binding model; constants are for binding in the absence of competitor
[19] = biological target: TGFBR2 extracellular domain (TGF-β type II receptor) (UniProt P37173); experiment: ITC; TGM6-D3, TGM1-D3 and TGFBR2 variants, simple binding model, 1–2 replicates per variant; syringe and cell proteins in Supplementary Table 6; 25 mM HEPES, 150 mM NaCl, 0.05% NaN3, pH 7.4
[20] = biological target: TGFBR2 extracellular domain (TGF-β type II receptor) (UniProt P37173)
[21] = biological target: TGF-β type II receptor extracellular domain (TGFBR2) (human); experiment: ITC; binder in the syringe, target in the sample cell, concentrations as in the tables; 25 °C; 25 mM HEPES, 150 mM NaCl, 0.05% NaN3, pH 7.4; fit to a simple 1:1 binding model
TGFBR2 D141A (human) = experiment: as above
TGFBR2 I76A (human) = experiment: as above
TGFBR2 D55A (human) = experiment: ITC; binder in the syringe, target in the sample cell, concentrations as in the tables; 35 °C; 25 mM HEPES, 150 mM NaCl, 0.05% NaN3, pH 7.4; fit to a simple 1:1 binding model
TGFBR2 E142A (human) = experiment: as above
[22] = biological target: TGM1 domains 4 and 5 (TGM1-D45) (H. polygyrus); experiment: as above

TGF-β type II receptor extracellular domain (TGFBR2)
Kd [1]: 222 nM
stoichiometry N [1]: 1.16 sites
Kd [2]: 360 nM
stoichiometry N [2]: 0.87 sites
Kd [3]: 5560 nM
stoichiometry N [3]: 0.71 sites
Kd [4]: 270 nM
stoichiometry N [4]: 0.9 sites
Kd [5]: 8030 nM
stoichiometry N [5]: 0.85 sites
Kd [6]: 3820 nM
stoichiometry N [6]: 1 sites
Kd [7]: 48400 nM
stoichiometry N [7]: 0.33 sites
Kd [8]: 1250 nM
stoichiometry N [8]: 0.67 sites
Kd [9]: 39000 nM
stoichiometry N [9]: 0.17 sites
Kd [10]: 1530 nM
stoichiometry N [10]: 0.72 sites
Kd [11]: 170 nM
stoichiometry N [11]: 1.1 sites
Kd [12]: 2620 nM
stoichiometry N [12]: 0.91 sites
Kd [13]: 380 nM
stoichiometry N [13]: 0.7 sites
Kd [14]: 437 nM
stoichiometry N [14]: 1.01 sites
Kd [15]: 4490 nM
stoichiometry N [15]: 0.82 sites
Kd [16]: 4230 nM
stoichiometry N [16]: 0.93 sites
Kd [17]: 3090 nM
stoichiometry N [17]: 1.12 sites
Kd [18]: 189 nM

TGM1-D3 S242R (domain or fragment)
fold gain of binding affinity against wild type [19]: 4 fold

TGM6 (TGF-β mimic 6), full-length (natural protein)
IC50 of inhibition of the TGF-β1- or TGM1-stimulated CAGA luciferase reporter in NIH-3T3 fibroblasts by increasing concentrations of TGM6 [20]: 0.05 nM
IC50 of inhibition of the TGF-β1- or TGM1-stimulated reporter in MFB-F11 fibroblasts by increasing concentrations of TGM6 [20]: 0.2 nM

TGM6 domain 3 (TGM6-D3) (domain or fragment)
Kd [21]: 350 nM
stoichiometry N [21]: 0.68 sites
Kd (TGFBR2 D141A (human)): 940 nM
stoichiometry N (TGFBR2 D141A (human)): 0.75 sites
Kd (TGFBR2 I76A (human)): 7350 nM
stoichiometry N (TGFBR2 I76A (human)): 0.69 sites
Kd (TGFBR2 D55A (human)): 2250 nM
stoichiometry N (TGFBR2 D55A (human)): 0.52 sites
Kd (TGFBR2 E142A (human)): 3170 nM
stoichiometry N (TGFBR2 E142A (human)): 0.56 sites

TGM6-D3 I78A (domain or fragment)
fold decrease in binding affinity against wild type [19]: 15.4 fold

TGM6-D3 R38A (domain or fragment)
fold decrease in binding affinity against wild type [19]: 22 fold

TGM6-D3 R82A (domain or fragment)
fold decrease in binding affinity against wild type [19]: 11 to 12 fold

TGM6-D3 R82S (domain or fragment)
fold loss of binding affinity against wild type [19]: 8.6 fold

TGM6-D3 R95A (domain or fragment)
fold decrease in binding affinity against wild type [19]: 11.6 fold

TGM6-D3 Y80A (domain or fragment)
fold decrease in binding affinity against wild type [19]: 134 fold

TGM6-D3 Y80F (domain or fragment)
fold decrease in binding affinity against wild type [19]: 3.5 fold

TGM6-D3 Y93A (domain or fragment)
fold decrease in binding affinity against wild type [19]: 108 fold

mouse CD44 (mCD44) (receptor)
Kd [22]: 126 nM
stoichiometry N [22]: 0.82 sites
